Test results from patent publication US20240350600A1.

Molecular target: cell-bound IgE on basophils of peanut-allergic subjects
Test: cell-based or functional assay

percentage of activated basophils, one subject: 8%
B1: Ara h 1 combined epitope peptide (409-427) (peptide)
peptide: NNFGKLFEVKPDKKNPQLQ
